Values of other authors, collected in publication PMC4681696.

Target: p75NTR (Homo sapiens) (UniProt P08138)
Sequence of UniProt P08138 (P08138 29-250): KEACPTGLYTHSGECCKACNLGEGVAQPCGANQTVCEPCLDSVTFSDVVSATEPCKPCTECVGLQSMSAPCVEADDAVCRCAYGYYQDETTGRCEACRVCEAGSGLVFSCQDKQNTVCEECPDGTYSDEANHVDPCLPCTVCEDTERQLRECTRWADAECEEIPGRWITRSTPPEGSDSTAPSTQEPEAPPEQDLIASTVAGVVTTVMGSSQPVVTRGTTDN

Kd: 7 nM
Substance: NGF (from UniProt P01138)
